From IntAct's records for PubMed 23949442

B1: SNARE-associated protein Snapin (Homo sapiens), O95295 (parent)
chain: MAGAGSAAVSGAGTPVAGPTGRDLFAEGLLEFLRPAVQQLDSHVHAVRESQVELREQIDNLATELCRINEDQKVALDLDPYVKKLLNARRRVVLVNNILQNAQERLRRLNHSVAKETARRRAMLDSGIYPPGSPGK

Variants of: B1
Conditions: with snp25_rat Snap25, P60881
Chain of snp25_rat Snap25, P60881 (P60881 whole entry, looked up): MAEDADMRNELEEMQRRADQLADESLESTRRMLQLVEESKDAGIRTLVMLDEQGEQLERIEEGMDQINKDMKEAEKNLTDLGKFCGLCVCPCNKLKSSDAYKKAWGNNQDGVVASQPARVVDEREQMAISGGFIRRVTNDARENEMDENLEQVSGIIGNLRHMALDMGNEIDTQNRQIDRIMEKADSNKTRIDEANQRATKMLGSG

| effect of a mutation on the interaction | Variant |
| --- | --- |
| decreasing interaction | T117D |
